Experiment [1] has as its target β-S109C/Q299C-(AF488)2 (E. coli) (UniProt P0A988). In words: other fluorescence titration.
Experiment [2] addresses β-S109C/Q299C/R103S-(AF488)2 (E. coli) (UniProt P0A988). Description: other fluorescence titration.
The target of experiment [3] is β-S109C/Q299C-(AF488)2 (E. coli) (UniProt P0A988). Description: other fluorescence titration. The source holds these as a separate data set.
Experiment [4] concerns the target β-S109C/Q299C/R103S-(AF488)2 (E. coli) (UniProt P0A988). In words: other fluorescence titration. This is another data set of the same source.
In experiment [5] the target is β-R103C/I305C-(AF488)2 (E. coli) (UniProt P0A988). Description: stopped-flow fluorescence kinetics.
Another experiment has as its target β-S109C-AF488 (E. coli) (UniProt P0A988). In words: stopped-flow fluorescence kinetics.
Experiment [6] addresses β-S109C/Q299C/R103S-(AF488)2 (E. coli) (UniProt P0A988). In words: stopped-flow fluorescence kinetics.
For experiment [7] the target is unchanged. In words: stopped-flow fluorescence kinetics. The source holds these as a separate data set.

Where two headings read alike, the source gives them in different places.

In general, Kd refers to the concentration at which binding is half-saturated. High values mean a looser complex, low ones a tighter complex.

The substance “E. coli clamp loader, γ complex (γ3δδ’ψχ subunits) (from UniProt P06710-2;P28630;P28631;P28905;P28632)” gave a Kd in experiment [1] of 7 nM. The substance also registered a Kd in experiment [2] of 4.2 nM. The Kd in experiment [3] was determined as 5.3 nM. This substance returned a Kd in experiment [4] of 5 nM. In experiment [5], this substance registered a k close (reverse of step 2 of the bind-open-lock model) of 4 s⁻¹; a k open (step 2 of the bind-open-lock model) of 9 s⁻¹; a koff, fast phase (k f) of 0.058 s⁻¹; a koff, slow phase (k s) of 0.011 s⁻¹. In experiment [5], this substance registered a limiting observed rate constant, rapid phase of opening of 11 s⁻¹ and a limiting observed rate constant, slow phase of opening of 1.5 s⁻¹. The same substance yielded a maximum observed rate constant, slow phase (clamp opening step) with β-S109C-AF488 (E. coli) of 8 s⁻¹. Besides, in experiment [6], the koff, fast phase (k f) stood at 0.039 s⁻¹ and the koff, slow phase (k s) stood at 0.0098 s⁻¹. In experiment [7], this substance came in with a koff, fast phase (k f) of 0.046 s⁻¹ and a koff, slow phase (k s) of 0.012 s⁻¹.

These data come from PMC5737080.
